The values below come from patent US12544428B2, “Controlled-release CNP agonists with reduced side-effects” (ASCENDIS PHARMA GROWTH DISORDERS A/S, priority 2016, dated 2026).

For series [1] the following is noted: 0.146 mg CNP-38 eq/kg. The procedure: (§1) Plasma total CNP-38 concentrations (conjugated and released CNP-38) were determined by quantification of the N-terminal signature peptide (sequence: […]) and C-terminal signature peptide (sequence: […]) after tryptic digestion.
(§2) LC-MS analysis was carried out by using an Agilent 1290 UPLC coupled to an Agilent 6550 iFunnel Q-TOF mass spectrometer via an ESI probe. Chromatography was performed on a Waters Acquity BEH300 C18 analytical column (50×2.1 mm I.D., 1.7 μm particle size) with pre-filter at a flow rate of 0.25 mL/min (T=25° C.). Water (UPLC grade) containing 0.2% formic acid (v/v) was used as mobile phase A and acetonitrile (UPLC grade) with 0.2% formic acid as mobile phase B. The gradient system comprised a short isocratic step at the initial parameters of 0.1% B for 3.0 min followed by a linear increase from 0.1% B to 16% B in 17 min. Mass analysis was performed in the single ion monitoring (SIM) mode, monitoring the ions m/z 482.75 [M+2H]^2+ (N-terminal) and m/z 824.36 [M+H]^1+ (C-terminal). As internal standard deuterated CNP-38 peptide was used.
(§3) Calibration standards of CNP-38 conjugate in blank plasma were prepared as follows: The thawed Li-heparin cynomolgous plasma was first homogenized, then centrifuged for 5 minutes. […] These solutions were used for the generation of a calibration curve.
(§4) For sample preparation, protein precipitation was carried out by addition of 300 μL of pre-cooled (0° C.) methanol to 100 μL of the plasma sample. 200 μL of the supernatant were transferred into a new well-plate and evaporated to dryness (under a gentle nitrogen stream at 35° C.). 100 μL of reconstitution solvent (Thermo digestion buffer, order number 60109-101, Thermo Fisher Scientific GmbH, Dreieich, Germany) were used to dissolve the residue. 20 μg of trypsin (order number V5111, Promega GmbH, Mannheim, Germany) were dissolved in 20 μL of 10 mM acetic acid. 2 μL of the trypsin solution were added to each cavity.
(§5) After 4 hours incubation at 37° C. (water bath), 5 μL of a 0.5 M TCEP solution were added to each cavity and incubated again for 5 min at 96° C. After the samples had cooled to room temperature, 3 μL acetonitrile were added. The eluates were transferred into vials. 10 μL were injected into the UPLC-MS system.
Blood samples were collected up to 168 h post dose, and plasma was generated. Plasma total CNP-38 concentrations were determined by quantification of the N-terminal signature peptide (sequence: […]) and C-terminal signature peptide (sequence: […]) after tryptic digestion as described in Materials and Methods.

For series [2] the following is noted: 0.146 mg CNP-38 eq/kg. The procedure:
as §1, §2, §3, §4, §5
Male cynomolgus monkeys (2-4 years old, 3-5 kg) received either a single subcutaneous administration (n=3 animals) of compound 10f or a single subcutaneous (n=3 animals) administration of 11i at a dose of 0.146 mg CNP-38 eq/kg. Blood samples were collected up to 168 h post dose, and plasma was generated. Plasma levels of total CNP-38 content were analyzed as described in example 24. In order to analyze the plasma content of free CNP-38, the blood samples were acidified after withdrawal by adding 20 vol % of 0.5 M sodium citrate buffer pH 4 to stop further CNP-38 release from the conjugate. Free CNP-38 levels in plasma can e.g. be determined by ELISA using a CNP antibody that binds to the ring region of CNP, as described in the literature (U.S. Pat. No. 8,377,884 B2), or by LC-MS/MS.
This is another data set of the same source.

Like-named read-outs stand apart in the source and are kept apart here.

With “Permanent Lys26 CNP-38 PEG4×10 kDa Conjugate [Compound 12g]”, in series [1] (single intravenous injection, plasma total CNP-38), the “half life time of CNP-38 content” value was “approx. 24 h”. In series [1] (single intravenous injection, plasma total CNP-38, earliest time point analyzed), this substance registered a CNP-38 tmax of 0.25 h. Further, in series [1] (single iv or sc dose), the dose site reactions entry is given as “No dose site reactions were observed” and the “tolerability of dose administrations” value was “well tolerated”. In addition, the “CNP-38 concentration at 168 h” value in series [1] (single subcutaneous injection) is recorded as “ca. 50 % of cmax”. For the same substance, in series [1] (single subcutaneous injection, plasma total CNP-38), the CNP-38 tmax was 48 h. The bioavailability result in series [1] (subcutaneous vs intravenous) is “ca. 50%”.

Turning to “Reversible Lys26 CNP-38 PEG2×20 kDa Conjugate [Compound 10f]”, in series [2] (single sc), the dose site reactions entry is “No dose site reactions were observed” and the “tolerability of dose administrations” value was “well tolerated”. Moreover, the “Total CNP-38 plasma levels after 120 h” value in series [2] (single sc, C-terminal peptide, below LOQ) is given as below 100 ng/mL. Besides, in series [2] (single subcutaneous administration), the “total CNP-38 tmax” value was found to be 12 h.
